# Reference: patent US20100015130A1 (MIT, published 2010)
# B1: Murine DISC1 peptide 3 (15-mer, mDISC1 amino acids 211 to 225) (peptide)
# peptide: SFSFIQLSLGAAGER
# notes: One of the overlapping 15-mer peptides that cover peptide 2; also called number 43; DISCtide2
# Molecular target: GSK3β as used in the surface plasmon resonance (SPR) binding assays (Homo sapiens (Human), UniProt P49841 1-420)
# Experiment: SPR, stoichiometry inferred from the response
# Method: Surface plasmon resonance (SPR) was used to determine whether peptide 2 directly binds to GSK3β. GSK3β SPR binding assays were carried out with peptide 1, peptide 2, the GSK3β inhibitor L803-MTS, and as a negative control, a peptide from the N-type calcium channel, CACNA1B (FIG. 6A). […] To identify the peptide 2 sequences that mediate this interaction with GSK3β, we designed overlapping 15-mer peptides that covered peptide 2 and tested their binding to GSK3β SPR (FIG. 16B).
# Sequence of GSK3β as used in the surface plasmon resonance (SPR) binding assays (P49841 whole entry, form in doubt): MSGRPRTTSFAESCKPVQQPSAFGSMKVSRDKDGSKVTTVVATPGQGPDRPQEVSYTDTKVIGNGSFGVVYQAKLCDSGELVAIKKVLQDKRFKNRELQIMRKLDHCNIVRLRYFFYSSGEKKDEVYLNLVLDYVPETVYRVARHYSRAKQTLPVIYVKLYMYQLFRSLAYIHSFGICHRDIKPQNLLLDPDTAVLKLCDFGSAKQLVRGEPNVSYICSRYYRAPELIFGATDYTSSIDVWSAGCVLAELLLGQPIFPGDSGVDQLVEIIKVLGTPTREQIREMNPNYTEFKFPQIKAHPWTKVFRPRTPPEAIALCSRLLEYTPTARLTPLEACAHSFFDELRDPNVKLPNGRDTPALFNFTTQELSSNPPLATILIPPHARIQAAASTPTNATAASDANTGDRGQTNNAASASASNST
row,Binder,peptide-protein ratio
1,B1,2 peptide:protein
2,PADIASLPGFQDTFTSSFSFIQLSLGAAGERGEAEGCLPSREAE (Synthetic peptide (Chi Scientific)) [Mouse DISC1 peptide 2 (195-238aa)],2 peptide:protein
